From US20160272693A1 (ZEALAND PHARMA A S, published 2016)
*1 amine or outer side, *2 acyl side, *3 side chain or, on linkers, in order; H or OH if unused. Bridges are numbered along the chain shown (N, C = ends). [ ]: non-standard residue; d: D form. The star is where a group is joined. C20 diacid = O=C(O)CCCCCCCCCCCCCCCCCCC(=O)*; γGlu = O=C(O)[C@H](CCC(=O)[*:2])N[*:1]; Hyp = O=C(O)[C@@H]1C[C@@H](O)CN1; NMeI = CC[C@H](C)[C@H](NC)C(=O)O; Aad = N[C@@H](CCCC(=O)O)C(=O)O; Sar = CNCC(=O)O

Target: T1, human amylin receptor 3 (hAMYR3), hCTR2 co-expressed with human receptor activity modifying protein 3 (hRAMP3) (human, UniProt P30988 25-474; O60896 24-148)
T1 sequence (looked up) 1: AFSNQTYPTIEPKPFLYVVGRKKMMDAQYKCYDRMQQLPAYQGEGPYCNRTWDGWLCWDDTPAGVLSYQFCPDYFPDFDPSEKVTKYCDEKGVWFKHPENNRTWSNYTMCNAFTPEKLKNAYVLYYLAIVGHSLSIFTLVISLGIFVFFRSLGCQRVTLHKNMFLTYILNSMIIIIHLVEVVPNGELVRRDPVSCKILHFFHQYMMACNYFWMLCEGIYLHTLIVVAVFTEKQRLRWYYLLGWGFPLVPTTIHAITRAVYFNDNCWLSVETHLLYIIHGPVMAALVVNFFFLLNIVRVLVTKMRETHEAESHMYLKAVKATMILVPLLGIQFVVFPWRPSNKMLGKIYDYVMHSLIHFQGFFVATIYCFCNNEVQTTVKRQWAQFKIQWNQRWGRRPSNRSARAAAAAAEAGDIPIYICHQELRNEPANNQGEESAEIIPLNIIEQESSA
T1 sequence (looked up) 2: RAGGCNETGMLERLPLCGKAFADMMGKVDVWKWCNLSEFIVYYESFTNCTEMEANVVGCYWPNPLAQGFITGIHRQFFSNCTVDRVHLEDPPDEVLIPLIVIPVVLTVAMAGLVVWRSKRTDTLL
Assay: cell-based or functional assay

B1: [19CD]-isoGlu-R-C( )-PTAT-C( )-ATERLAHFLQRSSF-Gly(Me)-A-Ile(Me)-LSSTEVGSGT-Hyp-NH2 (Compd. 72) (peptide)
peptide: {C20 diacid}-[γGlu]RCPTATCATERLAHFLQRSSF[Sar]A[NMeI]LSSTEVGSGT[Hyp]-NH2
modifications: disulfide 3-8
SMILES: CC[C@H](C)[C@@H](C(=O)N[C@@H](CC(C)C)C(=O)N[C@@H](CO)C(=O)N[C@@H](CO)C(=O)N[C@H](C(=O)N[C@@H](CCC(=O)O)C(=O)N[C@H](C(=O)NCC(=O)N[C@@H](CO)C(=O)NCC(=O)N[C@H](C(=O)N1C[C@H](O)C[C@H]1C(N)=O)[C@@H](C)O)C(C)C)[C@@H](C)O)N(C)C(=O)[C@H](C)NC(=O)CN(C)C(=O)[C@H](Cc1ccccc1)NC(=O)[C@H](CO)NC(=O)[C@H](CO)NC(=O)[C@H](CCCNC(=N)N)NC(=O)[C@H](CCC(N)=O)NC(=O)[C@H](CC(C)C)NC(=O)[C@H](Cc1ccccc1)NC(=O)[C@H](Cc1c[nH]cn1)NC(=O)[C@H](C)NC(=O)[C@H](CC(C)C)NC(=O)[C@H](CCCNC(=N)N)NC(=O)[C@H](CCC(=O)O)NC(=O)[C@@H](NC(=O)[C@H](C)NC(=O)[C@@H]1CSSC[C@H](NC(=O)[C@H](CCCNC(=N)N)NC(=O)CC[C@H](NC(=O)CCCCCCCCCCCCCCCCCCC(=O)O)C(=O)O)C(=O)N2CCC[C@H]2C(=O)N[C@@H]([C@@H](C)O)C(=O)N[C@@H](C)C(=O)N[C@@H]([C@@H](C)O)C(=O)N1)[C@@H](C)O
- hAMYR3 EC50 (nM); cAMP induction: 0.27 nM

B2: [19CD]-isoGlu-R-C( )-NTAT-C( )-ATQRLAHFLQRSSF-Gly(Me)-A-Ile(Me)-LSSTEVGSGT-Hyp-NH2 (Compd. 71) (peptide)
peptide: {C20 diacid}-[γGlu]RCNTATCATQRLAHFLQRSSF[Sar]A[NMeI]LSSTEVGSGT[Hyp]-NH2
modifications: disulfide 3-8
SMILES: CC[C@H](C)[C@@H](C(=O)N[C@@H](CC(C)C)C(=O)N[C@@H](CO)C(=O)N[C@@H](CO)C(=O)N[C@H](C(=O)N[C@@H](CCC(=O)O)C(=O)N[C@H](C(=O)NCC(=O)N[C@@H](CO)C(=O)NCC(=O)N[C@H](C(=O)N1C[C@H](O)C[C@H]1C(N)=O)[C@@H](C)O)C(C)C)[C@@H](C)O)N(C)C(=O)[C@H](C)NC(=O)CN(C)C(=O)[C@H](Cc1ccccc1)NC(=O)[C@H](CO)NC(=O)[C@H](CO)NC(=O)[C@H](CCCNC(=N)N)NC(=O)[C@H](CCC(N)=O)NC(=O)[C@H](CC(C)C)NC(=O)[C@H](Cc1ccccc1)NC(=O)[C@H](Cc1c[nH]cn1)NC(=O)[C@H](C)NC(=O)[C@H](CC(C)C)NC(=O)[C@H](CCCNC(=N)N)NC(=O)[C@H](CCC(N)=O)NC(=O)[C@@H](NC(=O)[C@H](C)NC(=O)[C@@H]1CSSC[C@H](NC(=O)[C@H](CCCNC(=N)N)NC(=O)CC[C@H](NC(=O)CCCCCCCCCCCCCCCCCCC(=O)O)C(=O)O)C(=O)N[C@@H](CC(N)=O)C(=O)N[C@@H]([C@@H](C)O)C(=O)N[C@@H](C)C(=O)N[C@@H]([C@@H](C)O)C(=O)N1)[C@@H](C)O
- hAMYR3 EC50 (nM); cAMP induction: 0.18 nM

B3: [19CD]-isoGlu-R-C( )-PTAT-C( )-ATERLAHFLQRSSF-Gly(Me)-A-Ile(Me)-LSSTEVGSTT-Hyp-NH2 (Compd. 74) (peptide)
peptide: {C20 diacid}-[γGlu]RCPTATCATERLAHFLQRSSF[Sar]A[NMeI]LSSTEVGSTT[Hyp]-NH2
modifications: disulfide 3-8
SMILES: CC[C@H](C)[C@@H](C(=O)N[C@@H](CC(C)C)C(=O)N[C@@H](CO)C(=O)N[C@@H](CO)C(=O)N[C@H](C(=O)N[C@@H](CCC(=O)O)C(=O)N[C@H](C(=O)NCC(=O)N[C@@H](CO)C(=O)N[C@H](C(=O)N[C@H](C(=O)N1C[C@H](O)C[C@H]1C(N)=O)[C@@H](C)O)[C@@H](C)O)C(C)C)[C@@H](C)O)N(C)C(=O)[C@H](C)NC(=O)CN(C)C(=O)[C@H](Cc1ccccc1)NC(=O)[C@H](CO)NC(=O)[C@H](CO)NC(=O)[C@H](CCCNC(=N)N)NC(=O)[C@H](CCC(N)=O)NC(=O)[C@H](CC(C)C)NC(=O)[C@H](Cc1ccccc1)NC(=O)[C@H](Cc1c[nH]cn1)NC(=O)[C@H](C)NC(=O)[C@H](CC(C)C)NC(=O)[C@H](CCCNC(=N)N)NC(=O)[C@H](CCC(=O)O)NC(=O)[C@@H](NC(=O)[C@H](C)NC(=O)[C@@H]1CSSC[C@H](NC(=O)[C@H](CCCNC(=N)N)NC(=O)CC[C@H](NC(=O)CCCCCCCCCCCCCCCCCCC(=O)O)C(=O)O)C(=O)N2CCC[C@H]2C(=O)N[C@@H]([C@@H](C)O)C(=O)N[C@@H](C)C(=O)N[C@@H]([C@@H](C)O)C(=O)N1)[C@@H](C)O
- hAMYR3 EC50 (nM); cAMP induction: 0.39 nM

B4: [19CD]-isoGlu-R-C( )-NTAT-C( )-ATQRLAHFLQRSSF-Gly(Me)-A-Ile(Me)-LSSTEVGSTT-Hyp-NH2 (Compd. 73) (peptide)
peptide: {C20 diacid}-[γGlu]RCNTATCATQRLAHFLQRSSF[Sar]A[NMeI]LSSTEVGSTT[Hyp]-NH2
modifications: disulfide 3-8
SMILES: CC[C@H](C)[C@@H](C(=O)N[C@@H](CC(C)C)C(=O)N[C@@H](CO)C(=O)N[C@@H](CO)C(=O)N[C@H](C(=O)N[C@@H](CCC(=O)O)C(=O)N[C@H](C(=O)NCC(=O)N[C@@H](CO)C(=O)N[C@H](C(=O)N[C@H](C(=O)N1C[C@H](O)C[C@H]1C(N)=O)[C@@H](C)O)[C@@H](C)O)C(C)C)[C@@H](C)O)N(C)C(=O)[C@H](C)NC(=O)CN(C)C(=O)[C@H](Cc1ccccc1)NC(=O)[C@H](CO)NC(=O)[C@H](CO)NC(=O)[C@H](CCCNC(=N)N)NC(=O)[C@H](CCC(N)=O)NC(=O)[C@H](CC(C)C)NC(=O)[C@H](Cc1ccccc1)NC(=O)[C@H](Cc1c[nH]cn1)NC(=O)[C@H](C)NC(=O)[C@H](CC(C)C)NC(=O)[C@H](CCCNC(=N)N)NC(=O)[C@H](CCC(N)=O)NC(=O)[C@@H](NC(=O)[C@H](C)NC(=O)[C@@H]1CSSC[C@H](NC(=O)[C@H](CCCNC(=N)N)NC(=O)CC[C@H](NC(=O)CCCCCCCCCCCCCCCCCCC(=O)O)C(=O)O)C(=O)N[C@@H](CC(N)=O)C(=O)N[C@@H]([C@@H](C)O)C(=O)N[C@@H](C)C(=O)N[C@@H]([C@@H](C)O)C(=O)N1)[C@@H](C)O
- hAMYR3 EC50 (nM); cAMP induction: 0.24 nM

B5: [19CD]-isoGlu-R-C( )-NTAT-C( )-ATQRLAHFLQRSSF-Gly(Me)-A-Ile(Me)-LSSTEVGS-Aad-T-Hyp-NH2 (Compd. 75) (peptide)
peptide: {C20 diacid}-[γGlu]RCNTATCATQRLAHFLQRSSF[Sar]A[NMeI]LSSTEVGS[Aad]T[Hyp]-NH2
modifications: disulfide 3-8
SMILES: CC[C@H](C)[C@@H](C(=O)N[C@@H](CC(C)C)C(=O)N[C@@H](CO)C(=O)N[C@@H](CO)C(=O)N[C@H](C(=O)N[C@@H](CCC(=O)O)C(=O)N[C@H](C(=O)NCC(=O)N[C@@H](CO)C(=O)N[C@@H](CCCC(=O)O)C(=O)N[C@H](C(=O)N1C[C@H](O)C[C@H]1C(N)=O)[C@@H](C)O)C(C)C)[C@@H](C)O)N(C)C(=O)[C@H](C)NC(=O)CN(C)C(=O)[C@H](Cc1ccccc1)NC(=O)[C@H](CO)NC(=O)[C@H](CO)NC(=O)[C@H](CCCNC(=N)N)NC(=O)[C@H](CCC(N)=O)NC(=O)[C@H](CC(C)C)NC(=O)[C@H](Cc1ccccc1)NC(=O)[C@H](Cc1c[nH]cn1)NC(=O)[C@H](C)NC(=O)[C@H](CC(C)C)NC(=O)[C@H](CCCNC(=N)N)NC(=O)[C@H](CCC(N)=O)NC(=O)[C@@H](NC(=O)[C@H](C)NC(=O)[C@@H]1CSSC[C@H](NC(=O)[C@H](CCCNC(=N)N)NC(=O)CC[C@H](NC(=O)CCCCCCCCCCCCCCCCCCC(=O)O)C(=O)O)C(=O)N[C@@H](CC(N)=O)C(=O)N[C@@H]([C@@H](C)O)C(=O)N[C@@H](C)C(=O)N[C@@H]([C@@H](C)O)C(=O)N1)[C@@H](C)O
- hAMYR3 EC50 (nM); cAMP induction: 0.26 nM

B6: [19CD]-isoGlu-R-C( )-PTAT-C( )-ATERLAHFLQRSSF-Gly(Me)-A-Ile(Me)-LSSTEVGSST-Hyp-NH2 (Compd. 70) (peptide)
peptide: {C20 diacid}-[γGlu]RCPTATCATERLAHFLQRSSF[Sar]A[NMeI]LSSTEVGSST[Hyp]-NH2
modifications: disulfide 3-8
SMILES: CC[C@H](C)[C@@H](C(=O)N[C@@H](CC(C)C)C(=O)N[C@@H](CO)C(=O)N[C@@H](CO)C(=O)N[C@H](C(=O)N[C@@H](CCC(=O)O)C(=O)N[C@H](C(=O)NCC(=O)N[C@@H](CO)C(=O)N[C@@H](CO)C(=O)N[C@H](C(=O)N1C[C@H](O)C[C@H]1C(N)=O)[C@@H](C)O)C(C)C)[C@@H](C)O)N(C)C(=O)[C@H](C)NC(=O)CN(C)C(=O)[C@H](Cc1ccccc1)NC(=O)[C@H](CO)NC(=O)[C@H](CO)NC(=O)[C@H](CCCNC(=N)N)NC(=O)[C@H](CCC(N)=O)NC(=O)[C@H](CC(C)C)NC(=O)[C@H](Cc1ccccc1)NC(=O)[C@H](Cc1c[nH]cn1)NC(=O)[C@H](C)NC(=O)[C@H](CC(C)C)NC(=O)[C@H](CCCNC(=N)N)NC(=O)[C@H](CCC(=O)O)NC(=O)[C@@H](NC(=O)[C@H](C)NC(=O)[C@@H]1CSSC[C@H](NC(=O)[C@H](CCCNC(=N)N)NC(=O)CC[C@H](NC(=O)CCCCCCCCCCCCCCCCCCC(=O)O)C(=O)O)C(=O)N2CCC[C@H]2C(=O)N[C@@H]([C@@H](C)O)C(=O)N[C@@H](C)C(=O)N[C@@H]([C@@H](C)O)C(=O)N1)[C@@H](C)O
- hAMYR3 EC50 (nM); cAMP induction: 0.36 nM
